In experiment [1] the target is T1, human thrombin (human, UniProt P00734 314-363; P00734 364-622). Put plainly: cell-based or functional assay.
The target in another experiment is prothrombin (UniProt P00734 44-622). Put plainly: ForteBio Octet, immobilized IgG.
Experiment [2] concerns the target T1, human thrombin. Put plainly: standard ELISA binding assay.

Where a chain is given by its changes, count along the chain named. In names and notes the source's numbering stands.

B1: wild-type anti-exosite 1 IgA antibody (antibody, V domains shown)
VH: QVQLIQSGSAVKKPGASVRVSCKVSGYTLTEAAIHWVRQAPGKGLEWMGGLDPQDGETVYAQQFKGRVTMTEDRSTDTAYMEVNNLRSEDTATYYCTTGDFSEFEPFSMDYFHFWGQGTVVTVAS
VL: EIVLTQSPATLSLSPGERATLSCRASQNVSSFLAWYQHKPGQAPRLLIYDASSRATDIPIRFSGSGSGTDFTLTISGLEPEDFAVYYCQQRRSWPPLTFGGGTKVEIKR
Regarding B1, in the experiment with human thrombin [1], the “thrombin hydrolysis of FVIII (feedback activation of thrombin via Xase complex), antibody effect” value was 7 fold decrease and the “thrombin hydrolysis of platelet receptor PAR-1 peptide (activation of platelets), antibody effect” value turned out to be 15 fold decrease.

B2: synthetic anti-exosite 1 IgG antibody (antibody, V domains shown)
VH: B1 VH
VL: B1 VL
notes: also called synthetic IgG; anti-exosite IgG antibody
As to B2, the binding result with prothrombin is recorded as “no binding (tested: 500nM)”.

B3: synthetic anti-exosite 1 IgG S30A variant antibody (antibody, name in Kabat numbering, V domains shown)
VH: B1 VH
VL: B1 VL with S30A
notes: also called ichorcumab S30A; ichorcumab
As for B3, the binding result with human thrombin [2] was “binds”.

For the origin of these results see patent WO2020003077A1 (dated 2020).
